In the supplement of paper PMC10126150:
± gives the standard deviation of the averaged measurements.

Tested on: ATP
Assay: switch fluorescence ratio, 500 uM ATP over buffer (Cy3 cluster intensity, sum of 5 cycles each) (fold (ratio)); higher = stronger signal-on switching upon ATP binding; sequences stand for … in TCGTCGGCAGCGTCAGATGTGTATAAGAGACAGTTTTTTTTTTTTTTTTTTTTTTTTT…TC
Conditions: aptamer strand: ATP DNA aptamer (quencher-CACCTGGGGGAGTATTGCGGAGGAAGG + anchor), 100 nM annealed; ATP concentration: 500 uM
How it was run: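 Five buffer/ATP imaging cycles were run on Cy3-labelled switching-strand clusters on a modified Illumina MiSeq flow-cell, with NaOH stripping and re-annealing between cycles. In each cycle, clusters annealed to 100 nM quencher-labelled ATP aptamer were imaged in selection buffer, then after 15 min with 500 uM ATP at 22 °C. Per cluster, the fluorescence ratio is summed target-cycle over summed buffer-cycle Cy3 intensity, averaged per switch-domain sequence. Only clusters within 100-1000 RFU were kept.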
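Further: ATP exposure 15 min at 22 °C before imaging.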

Sequence | switch fluorescence ratio
GGCTGTCGGA | 0.997 ± 0.0034
TGAGGAATGT | 1.0157 ± 0.00058
TGCAAGAGTG | 1.03 ± 0.011
TTTCCGACGT | 1.46 ± 0.62
TTGACGTGTT | 1.03 ± 0.047
AGTTTGGATA | 0.97 ± 0.028
TTTCAGGTCG | 1.02 ± 0.088
ATCTGCTAGG | 1.01 ± 0.031
GCCAGAGATA | 1.0422 ± 0.00051
TGGTATGCCC | 1.04 ± 0.088
GGGATGTGCG | 1.04 ± 0.027
TTGTATGTTT | 0.98 ± 0.023
TAGGAAAAAT | 1.09 ± 0.19
ATAATACGCC | 1.17 ± 0.013
CAGTCCGGGA | 1.101 ± 0.0079
TTAAGACGTA | 1.03 ± 0.063
AACGCGGCTG | 0.9967 ± 0.0046
ATTAAGCCAC | 1.12 ± 0.053
AGGGTTATAA | 0.969 ± 0.033
TAAAGCGAGC | 1.03 ± 0.023
GAATTGCGGG | 1.02 ± 0.087
TGGGGGTAGT | 0.99 ± 0.022

Sequence | switch fluorescence ratio
TTCGGTCGGG | 0.987 ± 0.028
ATGTAGCGGT | 1.12 ± 0.013
CATACCCTTG | 1.01 ± 0.037
TGGGGTAGGA | 0.988 ± 0.029
TAGTTGGATT | 0.972 ± 0.038
ATTAGTAACG | 1.03 ± 0.0071
GGTGCTGGAG | 0.98 ± 0.011
TAAATACTAT | 1.01 ± 0.018
ATCTAACGGC | 1.01 ± 0.0079
GTAATTGGGC | 0.964 ± 0.061
GTTCTGTCGG | 1.002 ± 0.01
GGTGAGTCGG | 0.9925 ± 0.0029
AGGAGTTTTT | 0.98 ± 0.03
AGGGCAGGG | 0.975 ± 0.065
AACGATCGCT | 1.04 ± 0.0082
CAACTATTTT | 1.002 ± 0.0083
ACCCATTGTA | 1.064 ± 0.0071
GCATTTTATA | 1.02 ± 0.012
GCCGGCCGGA | 1.02 ± 0.02
GGAATCAGGT | 1.014 ± 0.0065
CGAGTCCGTT | 0.99 ± 0.018
GGGGTGATGG | 1.02 ± 0.02

Sequence | switch fluorescence ratio
GCCTTCCTTT | 2.15 ± 0.72
GCTCACACGG | 1.62 ± 0.023
GATGTTATTC | 0.978 ± 0.011
AAGGGGTTGA | 1.01 ± 0.023
GAAGTTCCCA | 0.979 ± 0.011
TTAGGGTGGG | 1.01 ± 0.053
TAGAAGGGCC | 0.976 ± 0.02
ATGATGTCGG | 1.03 ± 0.033
GGGGTAGGTG | 1.08 ± 0.068
GAGGGATATA | 0.996 ± 0.043
CTTTTTTAGA | 0.9746 ± 0.0097
AGTATGGGGT | 0.996 ± 0.018
GCAATAATTA | 1.1 ± 0.046
GGTTCTGAGC | 0.986 ± 0.02
TTTGAAGAGT | 1.04 ± 0.017
GCTGGTGGGG | 0.964 ± 0.05
AAAGCCGGTT | 0.9689 ± 0.004
AATGGGTTGG | 0.9875 ± 0.0082
TTTTTCTCCC | 1.03 ± 0.049
AATTCCCTTT | 0.9946 ± 0.0012
TGAGGGGAGT | 0.9908 ± 0.0067
ATGCGGTGTG | 0.978 ± 0.04

Sequence | switch fluorescence ratio
ACGGCAGTGA | 1.0394 ± 0.00012
GTTGCTCTCA | 1.01 ± 0.049
TATCGTGATG | 0.992 ± 0.039
CAGAACAGCT | 1.029 ± 0.0039
TCGTTGGCGG | 0.951 ± 0.019
TTCGTAAAAA | 1.09 ± 0.089
TTACAAGTAT | 1.03 ± 0.021
TAAGATTTGT | 0.99 ± 0.02
AAAACGACCC | 1.11 ± 0.07
CTAATGAGTT | 0.999 ± 0.03
AGCAGGTGGG | 1.05 ± 0.076
TTTTCGCTTA | 1.01 ± 0.03
TCTTTGGGTT | 1.42 ± 0.92
GGTTTAATTA | 0.972 ± 0.03
AGTAATTGGT | 0.9954 ± 0.0088
TGGAGCGGTT | 1.03 ± 0.032
AAGCTCGTTG | 1.01 ± 0.031
GATTTTGTAC | 1.012 ± 0.0043
ACGTCGGGGG | 1 ± 0.021
